Reference: paper PMC4541418

Tested on: Fur (HpFur) (Helicobacter pylori (G27?))
Assay: DNase I footprinting
Conditions: pOPI and pOPII; 150 uM dipyridyl, 1 mM DTT then 5 mM H2O2, versus no H2O2; 10 mM Tris-Cl pH 7.85, 50 mM NaCl, 10 mM KCl, 0.02% Igepal CA-630, 10% glycerol, 0.1 mM DTT (plus 1 or 5 mM DTT or 5 mM H2O2); 150 uM (NH4)2Fe(SO4)2 or …

Ppfr probe (apo-operators pOPI, pOPII, pOPIII; holo-operator pOPIV)
binding signal (fold higher Fur needed): 5
